According to patent US20160136280A1, “STABLE INTRAVENOUS FORMULATION” (HOFFMANN-LA ROCHE INC., priority 2013, published 2016):

Columns and labels:
[1] = Water solubility; assay type: physicochemical
[2] = Oxidation stability; assay type: physicochemical; details: base compound is the major oxidation product
[3] = Light stability; assay type: physicochemical; details: forms the base compound and other degradants

| Compound | solubility in water [1] | sensitivity to oxidation [2] | sensitivity to light [3] | hydrolysis kinetics in aqueous solutions (aqueous solutions, base compound is the major degradation product) | most stable pH range (from stability perspective) |
| --- | --- | --- | --- | --- | --- |
| COc1cc(C(=O)O)ccc1NC(=O)[C@@H]1N[C@@H](CC(C)(C)C)[C@](C#N)(c2ccc(Cl)cc2F)[C@H]1c1cccc(Cl)c1F [base compound, 4-{[(2R,3S,4R,5S)-3-(3-chloro-2-fluoro-phenyl)-4-(4-chloro-2-fluoro-phenyl)-4-cyano-5-(2,2-dimethyl-propyl)-pyrrolidine-2-carbonyl]-amino}-3-methoxy-benzoic acid] | practically water insoluble | – | – | – | – |
| COCCOCCOC(=O)OC(C)OC(=O)c1ccc(NC(=O)[C@@H]2N[C@@H](CC(C)(C)C)[C@](C#N)(c3ccc(Cl)cc3F)[C@H]2c2cccc(Cl)c2F)c(OC)c1 (stereo partly drawn) [Compound A, 4-{[(2R, 3S, 5S)-4-(4-chloro-2-fluoro-phenyl)-3-(3-chloro-2-fluoro-phenyl)-4-cyano-5-(2,2-dimethyl-propyl)-pyrrolidine-2-carbonyl]-amino}-3-methoxy-benzoic Acid 1-[2-(2-methoxy-ethoxy)-ethoxycarbonyloxy]-ethyl ester] | relatively more soluble in water | vulnerable to oxidation | light sensitive | first-order kinetics | 3-5 pH |
